The target in test [1] is T1, CaATP-G-actin (rabbit skeletal muscle actin, monomer) (rabbit), P68135. The experiment in a line: cross-linking; competition: 6 μM Fl-LL-37 and 0-16 μM histatin-3 or histatin-5 for transglutaminase cross-linking to 4 μM CaATP-G-actin, 22 °C; SDS-PAGE visualized by fluorescence. Conditions: remark: other sources report otherwise.
In test [2] the target is T1, CaATP-G-actin (rabbit skeletal muscle …). Briefly: cross-linking; bacterial transglutaminase (0.3-0.4 mg/ml) at 22 °C, 4 μM CaATP-G-actin or TG-G-actin with 4-8 μM peptide, 1 to 30 min, stopped by 1 mM cysteamine; 12% SDS-PAGE, Coomassie blue or fluorescence, densitometry; one series with 0-200 mM NaCl (1 min). Conditions: remark: other sources report otherwise.

Drawing on publication PMC5340040, this text covers percent decrease of the cross-linking of 6 μM Fl-LL-37 to 4 μM G-actin and percent decrease of the extent of cross-linking with 200 mM NaCl for 2 molecules.

No end group written: not given here.

In turn, DSHAKRHHGYKRKFHEKHHSHRGY [Histatin-5] returned a percent decrease of the cross-linking of 6 μM Fl-LL-37 to 4 μM G-actin at 3 μM histatin in test [1] of 68%. With DSHAKRHHGYKRKFHEKHHSHRGY (also: FAM label, position not given here) [FAM labeled histatin-5], in test [2], the percent decrease of the extent of cross-linking with 200 mM NaCl was over 70%.
